Experimental data as given in publication PMC11220742.

Key:
[1] = molecular target: HLA-A*2601 H chain (extracellular domain) refolded with human β2-microglobulin; assay: in vitro refolding, gel filtration; settings: parent: est. 300; read off a plot
[2] = molecular target: HLA-A*0101 H chain (extracellular domain) refolded with human β2-microglobulin; assay: in vitro refolding, gel filtration; settings: parent: est. 230; read off a plot

Substance | response [1] | response [2]
EVF peptide (SARS-CoV-2 S 340–351) E1A | 290 mAU | –
EVF peptide (SARS-CoV-2 S 340–351) E1R | 100 mAU | –
EVF peptide (SARS-CoV-2 S 340–351) F3D | – | 330 mAU
